The source of these data is paper PMC3035719.

In one assay the target is MBP-DGKδSAM-H38A/V52E. As to the kind of experiment: SPR. In general terms: SPR reads the build-up and loss of mass on a sensor chip optically.
For the next assay, the target named is MBP-DGKδSAM-V52E (UniProt Q16760). As to the kind of experiment: SPR.

On to MBP-DGKδSAM-E35G (domain or fragment), for which the Kd with MBP-DGKδSAM-H38A/V52E worked out at 23 µM; in the assay with MBP-DGKδSAM-V52E, 12.2 µM.

The Kd is the concentration at which binding is half-saturated. Read a high Kd as lower affinity.
